Laboratory results: the DeepSol protein solubility set

Assay: soluble on expression in E. coli; label from the status in PepcDB or PDB records

Sequence	soluble on expression in E. coli
MAGDPMADQEANAEQPMPKAEQKKPEKKAVQVQKKEDDTSAWIKTEKPAKLPILMYHSISSGNSLRVPKKEFEAHMKWLHDNGYQTLTPKEASLMLTQDKKPSEKCVLITFDDGYTDNYQDAYPVLKKYGMKATIFMIGKSIGHKHHLTEEQMKEMAQHGISIESHTIDHLELNGLTPQQQQSEMADSKKLFDNMFHQQTTIISYPVGRYNEETLKAAEKTGYQMGVTTEPGAASRDQGMYALHRVRVSPGMSGSAFGAYIESMKLEHHHHHH	soluble
MALVIAGERSGVGKTTVTLTLLASLCRRSAIVQSFKVGPDYIDPMFHTYVTGRACRNLDPVLTSEAYVQQCFARHYQESEYALVEGVMGLFDGIGRQEAGGQGAGGRENNFSTSHSALTTDFASTAHVARLLDLPVVLVIDCSRLSGSVAAIAHGYCSFDPRIKMAGVVLNRVGSDRHLSLLQDALKPLQLPILGVLRRQDDITIPDRHLGLIPTAELPELNAVINRLADLGDTCFDWQNLLPLLQAKEVGGREQGAGSRGQGAGEAGEAGGELTARFSPNPQSPIPNPQSPVPHPPKIAVARDRAFNFYYQDNLDLLQQLGAELVFWSPLTDGELPSGVRGMYFGGGFPEVFASQLAENSSARDAVKQAILAGMPTIAECGGLMYLCEQIIDFEGQSWPMVGVLPTSAAMGGRLTLGYRRAVALQDSLLVNVGTHIYGHEFHRSRLITAPTQPLFETYRYDCPENMGCEGWGFPKNIHASYVHLHWGESGEIPRQFIQQCAYFGETIDLVHMYLEHHHHHH	not soluble
MAHHHHHHMGKVKKQANHAIKKILMKEKSLAMKKKREAESYHETPESNTTTQATKDYAAVLFRKALVTQAAPTRTAHFLSYNTALGPPYRIWLDTNFINFSMQNKIDIVQGLMDCLLAKVIPCICDCVFAELEKLGKKFRIALKLARDKRFERLTCDSKYADDCVVRTVTQHPIYIVATCDQELKRRLRKVPGVPIMYIAKHRYTIERLPEAYGAPE	not soluble
MGHHHHHHENLYFQSHLYFQSHMDVAPLNLGMIAAYYYINYTTIELFSMSLNAKTKVRGLIEIISNAAEYENIPIRHHEDNLLRQLAQKVPHKLNNPKFNDPHVKTNLLLQAHLSRMQLSAELQSDTEEILSKAIRLIQACVDVLSSNGWLSPALAAMELAQMVTQAMWSKDSYLKQLPHFTSEHIKRCTDKGVESVFDIMEMEDEERNALLQLTDSQIADVARFCNRYPNIELSYEVVDKDSIRSGGPVVVLVQLEREEEVTGPVIAPLFPQKREEGWWVVIGDAKSNSLISIKRLTLQQKAKVKLDFVAPATGAHNYTLYFMSDAYMGCDQEYKFSVDVKEAETDSDSD	soluble
MGSDKIHHHHHHMRFSRIPPIFANVVRQTHYRNYANGVIKPREFNKVMVANRGEIAIRVFRALTELNKTSVAIYAEQDKNSMHRLKADEAYLVGKGLPPVAAYLTIDQIIETALKHNIDAIHPGYGFLSERSDFAAACQNAGIVFIGPSPDVMARMGDKVAARQAAIEAGVQVVPGTPGPITTADEAVEFAKQYGTPIILKAAYGGGGRGIRRVDKLEEVEEAFRRSYSEAQAAFGDGSLFVEKFVERPRHIEVQLLGDHHGNIVHLYERDCSVQRRHQKVVEIAPAPALPEGVREKILADALRLARHVGYQNAGTVEFLVDQKGNYYFIEVNARLQVEHTVTEEITGVDLVQAQIRIAEGKSLDDLKLSQETIQTTGSAIQCRVTTEDPAKGFQPDSGRIEVFRSGEGMGIRLDSASAFAGSVISPHYDSLMVKVIASARNHPNAAAKMIRALKKFRIRGVKTNIPFLLNVLRQPSFLDASVDTYFIDEHPELFQFKPSQNRAQKLLNYLGEVKVNGPTTPLATDLKPAVVSPPIPYIPAGAKPPTGLRDVLVQRGPTEFAKEVRSRPGCMITDTTFRDAHQSLLATRVRTYDMAAISPFVAQSFNGLFSLENWGGATFDVSMRFLHECPWERLQTLRKLIPNIPFQCLLRGANAMGYSNYPDNVIYKFCELAVKNGMDVFRVFDSLNYLPNLLVGMEAVGKAGGVVEAAIAYTGDVTDKSRDKYDLKYYLNLADQLVKAQAHILSIKDMAGVLKPEAAKLLIGALRDKFPDIPIHVHTHDTSGAGVAAMLECAKAGADVVDAAVDSMSGMTSQPSMGAIVASLQGTKHDTGLSLDDISKYSAYWESTRQLYAPFECATTMKSGNADVYKHEIPGGQYTNLQFQAFSLGLGPQFDEVKRMYREANLVLGDIIKVTPSSKIVGDLAQFMVQNNLTRETLVDRADDLSFPKSVVDFMQGNVGQPPYGFPEPLRTKVLRGKPKVDGRPGENAKPVDLDAVKVELEEKHGRTLSEEDVMSYSMFPTVFDEFETFRQQYGPVDKLPTRLFLTGLEIAEEVDVEIESGKTLAIQLLAEGKLNKRGEREVFFDLNGQMRSIFVVDKEASKEIVTRPRALPGVRGHIGAPMPGDVLELKIKEGDKVTKKQPLFVLSAMKMEMVIDSPIAGTVKAIHAPQGTKCSAGDLVVEVEP	not soluble
MGSDKIHHHHHHMKIAIEAQRIFRKEKHGMDYVALETIRELQKIDQQNEYFILVSPGDDVCLQESANMHIVTVNWPSYPLWEQIGLPLALKKIKPDLLHCTSNTAPVHGNIPLVLTLHDIIFLEKKQGKNQSMYQRLGRFYRKIIVPQILTKCKRIITVSHFECNRISHFLHIDKQLLVAVYNGYSQHFIPIRNAQAITARYIKNHPYLFFLGNTDPKKNTARVLQAYGIYLKKSSQPLPLLIADLKEEIIDEYLNREGLQEIKKMLYHPGYIPNTELPAVYSGASVFIYTSLRESFGIPILEAMACGTPVITSTTSAMPEIAGPEGILVNPFEPEEIASALLHLEENAEFYQSQTAYGLERVRRFSWENTAREILNIYKEILA	not soluble
MKLKHKRDDKMRFDIKKVLELAEKDFETAWRETRALIKDKHIDNKYPRLKPVYGKPHPVMETIERLRQAYLRMGFEEMINPVIVDEMEIYKQFGPEAMAVLDRCFYLAGLPRPDVGLGNEKVEIIKNLGIDIDEEKKERLREVLHLYKKGAIDGDDLVFEIAKALNVSNEMGLKVLETAFPEFKDLKPESTTLTLRSHMTSGWFITLSSLIKKRKLPLKLFSIDRCFRREQREDRSHLMSYHSASCVVVGEDVSVDDGKVVAEGLLAQFGFTKFKFKPDEKKSKYYTPETQTEVYAYHPKLGEWIEVATFGVYSPIALAKYNIDVPVMNLGLGVERLAMIIYGYEDVRAMVYPQFYEYRLSDRDIAGMIRVDKVPILDEFYNFANELIDICIANKDKESPCSVEVKREFNFNGERRVIKVEIFENEPNKKLLGPSVLNEVYVYDGNIYGIPPTFEGVKEQYIPILKKAKEEGVSTNIRYIDGIIYKLVAKIEEALVSNVDEFKFRVPIVRSLSDINLKIDELALKQIMGENKVIDVRGPVFLNAKVEIK	soluble
MGSDKIHHHHHHDPLESMNRGIYKFNDTADKAVLKPIAGAYKAVLPSPIRTGVNNFFTNLGTFTSLVNNILQLELGKAMDNTGRLLINSTIGIGGLVDVASMDGVPNHRADFGQTLGKWGVGSGAYLVLPFLGPSTLRDTAGLTIDTLYFDPIQYTNHVRERNQLRMLSFIDLRSQYLPASDLIDDAALDPYIFMREAYLERRHQFVTGEASSFDDFDDDDEEVTPPEPQ	not soluble
MAEAESVSVDGWDFSWLDGRATEQRPSWGYQRLMGERLARANAALDIQTGGGEVLAGAMTMPPVMVATESWPPNVAKATALLHPLGAVVVADADEPPLPFAEGAFDLVTSRHPATVWWDEIARVLRPGGTYFSQHVGHASVFELVEYFLGPQPTRPASSSRPANAADSAHRLRPVEGLPDDVGVPGVLGGLPDDVEQDPARGPA	not soluble
MAHHHHHHMPTVSSSTPSPASTPTVGVPPGKVWLNADEPNDEYSLFCTEAIPPKVPGTVRIWVDGCFDMLHFGHANALRRARRLGDELFVGCHSDEEVMRFKGPPIMHAEERYEALRACKWVDHVVENYPYCTRLKDIERFEIDYVVHGDDISVDLNGRNSYQEIIDAGKFKVVKRTKGISTTDLVGRMLLCTKNHMLKSVDEVQLENSLLEHSPTMPCLTTSRKIVQFSNNSSPKPGDRIVYVDGSFDLFHIGHIRVLQKARELGDYVIAGVYEDQVVNEHKGKNYPIMSFNERVLGVLSCRYVDEVVMGVPFDVSKDVIDGLHINVVVGDKFSDLVVEEGGSTRYEVPKAMGIYHEVDSGCILSTDSLIDRVVENRLDFLKRQAEKRIKDTKSQEIKPDEYRKLREAS	not soluble
